The results in this text go back to patent US20160289698A1 (TRUSTEES OF DARTMOUTH COLLEGE, published 2016).

Holding throughout (assay): yeast two-hybrid (LexA-KMD bait, B42-ARR prey, X-gal)
One test addresses T1, ARR12 (Arabidopsis, UniProt P62598 1-596).
T1 construct: YFP^N or YFP^C fusion of the full-length cDNA in BiFC; also called AtARR12; type-B response regulator AtARR12
T1 sequence (looked up): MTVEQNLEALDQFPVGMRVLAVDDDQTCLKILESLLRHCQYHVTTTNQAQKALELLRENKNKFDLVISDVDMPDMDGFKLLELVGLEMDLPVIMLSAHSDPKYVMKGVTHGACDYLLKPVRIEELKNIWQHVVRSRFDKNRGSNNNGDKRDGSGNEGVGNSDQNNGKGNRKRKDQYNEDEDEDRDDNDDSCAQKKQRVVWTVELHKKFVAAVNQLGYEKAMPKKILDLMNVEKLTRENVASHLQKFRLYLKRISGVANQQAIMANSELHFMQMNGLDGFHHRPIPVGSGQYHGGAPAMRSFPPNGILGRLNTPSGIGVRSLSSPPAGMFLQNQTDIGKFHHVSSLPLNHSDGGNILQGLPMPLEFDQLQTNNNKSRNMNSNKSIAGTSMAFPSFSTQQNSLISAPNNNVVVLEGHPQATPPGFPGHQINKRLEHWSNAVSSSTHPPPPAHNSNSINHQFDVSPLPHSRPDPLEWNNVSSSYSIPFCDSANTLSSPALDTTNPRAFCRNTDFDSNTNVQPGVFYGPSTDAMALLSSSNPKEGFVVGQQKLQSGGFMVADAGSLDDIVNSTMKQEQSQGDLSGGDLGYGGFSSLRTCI
The source says:
(§1) The DUPLEX-A™ system (OriGene Technologies) was used for yeast two-hybrid analysis of interactions. KMD cDNAs were cloned into the pGilda bait vector, which produces an in-frame fusion with the LexA DNA-binding domain. Type-B ARR coding sequences were cloned into the pJG4-5 prey vector, which produces a B42 activation domain. The yeast strain EGY48 (MATa, trp1, his3, ura3, leu2::6 LexAop-LEU2) that contains the lacZ reporter plasmid pSH18-34 was transformed with the appropriate “bait” and “prey” plasmids. Interactions were tested on 5-bromo-4-chloro-3-indolyl-p-D-galactopyranoside (X-gal) medium (Ryu, et al. (2005) Cell 120(3): 395-406).
(§2) The KMD proteins also interacted with ARR20 (type-B ARR subfamily-3), but not with ARR19 (subfamily-2) and ARR21 (subfamily-3). […] All four KMD proteins interacted with both ARR1 and ARR12 in a BiFC assay. Strong fluorescence was detected in the nuclei of cells, consistent with the subcellular localization of the type-B ARRs (Hwang & Sheen J (2001) Nature 413(6854):383-389; Mason, et al. (2004) Plant Physiol. 135(2):927-937).

In another test the target is T2, ARR2 (Arabidopsis, UniProt Q9ZWJ9 1-664, limits assumed).
T2 construct: also called type-B response regulator ARR2
T2 sequence (looked up): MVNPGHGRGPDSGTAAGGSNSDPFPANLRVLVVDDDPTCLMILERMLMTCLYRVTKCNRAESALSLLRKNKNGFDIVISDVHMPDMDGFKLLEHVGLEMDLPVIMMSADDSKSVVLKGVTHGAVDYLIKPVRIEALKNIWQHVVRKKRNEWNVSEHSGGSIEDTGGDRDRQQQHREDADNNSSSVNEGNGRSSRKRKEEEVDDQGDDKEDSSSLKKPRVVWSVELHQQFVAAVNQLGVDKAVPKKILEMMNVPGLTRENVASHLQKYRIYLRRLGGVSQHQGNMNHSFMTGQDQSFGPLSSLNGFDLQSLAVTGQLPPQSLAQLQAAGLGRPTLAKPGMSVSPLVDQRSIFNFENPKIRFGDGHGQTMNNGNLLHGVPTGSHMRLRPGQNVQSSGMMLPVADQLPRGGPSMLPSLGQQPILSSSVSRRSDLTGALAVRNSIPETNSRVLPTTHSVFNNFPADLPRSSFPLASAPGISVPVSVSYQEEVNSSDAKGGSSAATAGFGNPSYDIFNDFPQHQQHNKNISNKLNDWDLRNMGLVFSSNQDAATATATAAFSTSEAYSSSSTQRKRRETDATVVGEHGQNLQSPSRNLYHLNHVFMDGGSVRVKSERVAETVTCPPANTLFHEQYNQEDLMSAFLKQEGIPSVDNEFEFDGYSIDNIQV
From the text: as §1, §2

The target of another test is T3, ARR10 (Arabidopsis, UniProt O49397 1-552, limits assumed).
T3 construct: also called type-B response regulator ARR10
T3 sequence (looked up): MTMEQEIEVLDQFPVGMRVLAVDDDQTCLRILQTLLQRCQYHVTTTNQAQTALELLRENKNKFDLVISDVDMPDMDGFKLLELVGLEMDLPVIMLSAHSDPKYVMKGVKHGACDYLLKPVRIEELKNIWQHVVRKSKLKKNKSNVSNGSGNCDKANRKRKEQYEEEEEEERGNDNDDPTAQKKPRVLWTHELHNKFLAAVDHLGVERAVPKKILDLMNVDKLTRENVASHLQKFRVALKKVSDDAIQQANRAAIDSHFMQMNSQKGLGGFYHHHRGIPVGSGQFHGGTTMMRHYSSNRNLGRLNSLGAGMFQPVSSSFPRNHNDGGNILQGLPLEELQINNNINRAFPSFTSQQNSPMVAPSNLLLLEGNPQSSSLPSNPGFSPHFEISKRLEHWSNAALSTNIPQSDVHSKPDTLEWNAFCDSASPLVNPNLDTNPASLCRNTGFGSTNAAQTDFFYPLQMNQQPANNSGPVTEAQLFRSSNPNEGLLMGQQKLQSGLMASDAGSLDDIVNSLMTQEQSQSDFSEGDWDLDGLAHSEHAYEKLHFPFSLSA
From the text: as §1, §2

In test [1] the target is T4, ARR20 (type-B ARR subfamily-3) (Arabidopsis, UniProt Q9LZJ8 1-426, limits assumed).
T4 sequence (looked up): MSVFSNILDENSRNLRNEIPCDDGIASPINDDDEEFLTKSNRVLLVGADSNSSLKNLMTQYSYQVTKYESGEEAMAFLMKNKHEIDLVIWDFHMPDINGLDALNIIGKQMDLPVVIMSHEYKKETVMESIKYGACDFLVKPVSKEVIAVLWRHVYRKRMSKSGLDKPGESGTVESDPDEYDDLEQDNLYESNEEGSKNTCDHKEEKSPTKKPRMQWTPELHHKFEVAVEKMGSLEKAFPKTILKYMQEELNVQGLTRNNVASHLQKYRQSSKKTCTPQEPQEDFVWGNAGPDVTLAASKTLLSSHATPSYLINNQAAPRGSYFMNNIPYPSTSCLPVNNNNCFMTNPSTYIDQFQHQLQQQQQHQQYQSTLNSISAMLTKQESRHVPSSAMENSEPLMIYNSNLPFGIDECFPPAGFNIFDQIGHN
From the text: as §1, §2

The target of the next test is T5, ARR21 (subfamily-3) (Arabidopsis, UniProt Q9LYP5 1-613, limits assumed).
T5 sequence (looked up): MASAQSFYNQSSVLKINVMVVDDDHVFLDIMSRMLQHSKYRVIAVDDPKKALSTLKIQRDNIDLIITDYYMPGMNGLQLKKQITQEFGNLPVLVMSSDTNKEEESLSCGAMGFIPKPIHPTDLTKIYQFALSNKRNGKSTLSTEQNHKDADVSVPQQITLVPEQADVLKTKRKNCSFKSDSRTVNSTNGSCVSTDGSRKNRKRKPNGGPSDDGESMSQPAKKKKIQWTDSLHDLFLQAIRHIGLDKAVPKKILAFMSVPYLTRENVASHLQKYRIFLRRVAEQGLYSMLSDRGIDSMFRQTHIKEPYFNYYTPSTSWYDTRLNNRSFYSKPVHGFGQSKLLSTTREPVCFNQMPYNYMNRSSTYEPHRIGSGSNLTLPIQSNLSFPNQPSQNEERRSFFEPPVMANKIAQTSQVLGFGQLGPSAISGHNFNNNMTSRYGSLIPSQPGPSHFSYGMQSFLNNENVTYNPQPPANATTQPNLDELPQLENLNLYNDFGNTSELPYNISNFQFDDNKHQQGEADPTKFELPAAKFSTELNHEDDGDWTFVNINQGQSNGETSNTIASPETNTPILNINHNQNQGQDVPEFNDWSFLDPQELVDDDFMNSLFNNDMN
From the text: as §1, §2

B1: KISS ME DEADLY 4 (KMD4) (other, Arabidopsis, UniProt Q9M1Y1 1-418, looked up)
chain: MGVSKKKSGEIRGDLIPGLPEELAIECLVRVPFQFHSSIKSVCRSWKCVISSRSFIKERIGFGKAESLLCLVQPLTSPPSPAMMEGGEMSQKKKEEEEGESQMTQQLLQPRITGTPLYGLSVYNATLDTWHRVAIPERIPLFCECVAIQDAGKVLLIGGWDPETLQPVRDVFVLDFFAGEGSGRRFRRGRPMSAARSFFACASVGSTKVYVAGGHDDQKNALRSAEVYDVEKDEWSMLPPMTEGRDECHGFSMATDPGFCVLSGYGTETQGQFRSDGEIYDPITNSWSTIENVWPFPDLSPRGRTAAAAAEFPGDFRGCRLWCFIDSERQSQPHWEVEDDSMKWKVIMDTIRLPVTTMTSVFAGSLSGQAVAMIGGGGEESGTMMVKTTAEKNGGKWSHVNTPSGFSSLPFSCSSIYV
notes: Full-length protein; LexA fusion in yeast two-hybrid, YFP^N or YFP^C fusion in BiFC; also called At3g59940
For B1, the binding result with ARR12 is listed as “binds”; with ARR2, “binds”; with ARR10 it was “binds”; in test [1], “binds”; with ARR21 (subfamily-3), “no binding”.

B2: KISS ME DEADLY 3 (KMD3) (other, Arabidopsis, UniProt O80582 1-409, looked up)
chain: MTMEVSKKKGGDFQQCHELIPGLPSELALECLVRVPFQFQSAMRSVCRSWRSLLSDSSFIQERRRCGKTELLLCLVQPLTPPIPASKSVDETLMVDEKKSEDESHPRVFCTPRFGLSVYNAAMSTWHRVAFPEEEQIPLFCECVVLQDAGKILLIGGWDPETLQPTRDVYVLEFAGRKWRRGAPMKESRSFFACASVSPTKVYVAGGHDDQKNALRSAEVYDVEKDEWSSVTPMTEGRDECQGFAVGMGLRFCVLSGYGTESQGRFRSDGEIYDPATDSWSRIDNVWRFPDTSPRGRTAGDFRSSSTLWCFTDTDLQSERRWETNDDSRNLKLDLQSIQLPMTGSSVFAGSLGGESVVMIGGKRESEGEGEGGVMMKMTTEKKMGKWSHHVHIPCDFSTLPFSHASIYV
notes: Full-length protein; LexA fusion in yeast two-hybrid, YFP^N or YFP^C fusion in BiFC; also called At2g44130
As to B2, the binding result with ARR12 is given as “binds”; in the test with ARR2 it was “binds”; with ARR10, “binds”; in test [1], “binds”; in the test with ARR21 (subfamily-3), “no binding”.
